Test results from article PMC10374065 (PLOS Pathogens, 2023).

B2: purified recombinant T7-tagged vIRF-1 (natural protein)
chain: MDPGQRPNPFGAPGAIPKKPCLSQGSPGTSGSGAPCDEPSRSESPGEGPSGTGGSAAAGDITRQAVVAAITEWSRTRQLRISTGASEGKASIKDWIVCQVNSGKFPGVEWEDEERTRFRIPVTPLADPCFEWRRDGELGVVYIRERGNMPVDASFKGTRGRRRMLAALRRTRGLQEIGKGISQDGHHFLVFRVRKPEEEQCVECGVVAGAVHDFNNMARLLQEGFFSPGQCLPGEIVTPVPSCTTAEGQEAVIDWGRLFIRMYYNGEQVHELLTTSQSGCRISSALRRDPAVHYCAVGSPGQVWLPNVPNLACEIAKRELCDTLDACAKGILLTSSCNGIFCVCYHNGPVHFIGNTVPPDSGPLLLPQGKPTRIFNPNTFLVGLANSPLPAPSHVTCPLVKLWLGKPVAVGKLEPHAPSPRDFAARCSNFSDACVVLEIMPKPLWDAMQ
notes: source: purified recombinant protein; not shown: T7, C-terminal, kept

What was measured:
Experiment in all cases: pull-down
Conditions in all cases: both partners purified
[1] = target: B2
GST-LC3B E41K = GST-LC3B E41K (human, UniProt Q9GZQ8 1-120, E41K)
GST-LC3B L22K = GST-LC3B L22K (human, UniProt Q9GZQ8 1-120, L22K)
GST-LC3B D19E = GST-LC3B D19E (human, UniProt Q9GZQ8 1-120, D19E)
GST-GABARAPL1 = target: T1, GST-GABARAPL1 (human, UniProt Q9H0R8 1-117)
T1 construct: also called GABARAP-like 1; GL1
T1 sequence (Q9H0R8 whole entry): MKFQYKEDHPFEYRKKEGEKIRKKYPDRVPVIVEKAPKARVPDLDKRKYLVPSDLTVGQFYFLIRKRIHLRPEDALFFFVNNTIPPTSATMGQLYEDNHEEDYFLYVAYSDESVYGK

[2] = target: T2, purified recombinant T7-tagged GABARAPL1 (human, UniProt Q9H0R8 1-117)
T2 construct: also called T7-GABARAPL1

B1: GST-GABARAP (natural protein, human, UniProt O95166 1-117, looked up)
chain: MKFVYKEEHPFEKRRSEGEKIRKKYPDRVPVIVEKAPKARIGDLDKKKYLVPSDLTVGQFYFLIRKRIHLRAEDALFFFVNNVIPPTSATMGQLYQEHHEEDFFLYIAYSDESVYGL
notes: also called γ-amino-butyric acid receptor-associated protein
binding result [1]: binds

B2
binding result (GST-LC3B E41K): binds | binding result (GST-LC3B L22K): binds | binding result (GST-LC3B D19E): binds | binding result (GST-GABARAPL1): binds

B3: GST-fused full-length (FL) vIRF-1 (natural protein)
chain: MDPGQRPNPFGAPGAIPKKPCLSQGSPGTSGSGAPCDEPSRSESPGEGPSGTGGSAAAGDITRQAVVAAITEWSRTRQLRISTGASEGKASIKDWIVCQVNSGKFPGVEWEDEERTRFRIPVTPLADPCFEWRRDGELGVVYIRERGNMPVDASFKGTRGRRRMLAALRRTRGLQEIGKGISQDGHHFLVFRVRKPEEEQCVECGVVAGAVHDFNNMARLLQEGFFSPGQCLPGEIVTPVPSCTTAEGQEAVIDWGRLFIRMYYNGEQVHELLTTSQSGCRISSALRRDPAVHYCAVGSPGQVWLPNVPNLACEIAKRELCDTLDACAKGILLTSSCNGIFCVCYHNGPVHFIGNTVPPDSGPLLLPQGKPTRIFNPNTFLVGLANSPLPAPSHVTCPLVKLWLGKPVAVGKLEPHAPSPRDFAARCSNFSDACVVLEIMPKPLWDAMQ
binding result [2]: binds
